{
  "source": "the DeepSol protein solubility set",
  "data": [
    {"assay": "soluble on expression in E. coli; label from the status in PepcDB or PDB records", "values": [
      {"sequence": "MGSDKIHHHHHHMKPLPAQAIWFTAPHTVSIREEIAPPPAYGDVRIAAIASLISHGTERLVYRGEVDPTLALDLPTLQGSFAFPIKYGYAIAGRVIDIGPGVEQFQIGDPVAALHPHQTIFTLPAHLVKRLPDTLDPALGGFYANVETALTICHDAAPRLGETVVVLGQGVVGLLVTQLLQRTGAQVIAVEPDAHRRALATQFGATTLAQADPATIAELTDGRGADIVVEVSGSPAALQQAIELTATEGLVVVASWYGQKPAPLILGGHFHRGRVRLRSSQVGRLAPETLPRWDYARRSATVMNLLPRLCLNELISHRIPFVQAAAAYDLLDQAPPGLVQVMLTYADYAPQT", "soluble on expression in E. coli": "not soluble"},
      {"sequence": "MKGNYVQVYVMLPLDAVSVNNRFEKGDELRAQLRKLVEAGVDGVMVDVWWGLVEGKGPKAYDWSAYKQLFELVQKAGLKLQAIMSFHQCGGNVGDAVNIPIPQWVRDVGTRDPDIFYTDGHGTRNIEYLTLGVDNQPLFHGRSAVQMYADYMTSFRENMKDFLDAGVIVDIEVGLGPAGELRYPSYPQSHGWSFPGIGEFICYDKYLQADFKAAAAAVGHPEWEFPNDAGQYNDTPERTQFFRDNGTYLSEKGRFFLAWYSNNLIKHGDRILDEANKVFLGYKVQLAIKIAGVHWWYKVPSHAAELTAGYYNLHDRDGYRTIARMLKRHRASINFTCAEMRDSEQPPDAMSAPEELVQQVLSAGWREGLNVSCENALPRYDPTAYNTILRNARPHGINQSGPPEHKLFGFTYLRLSNQLVEGQNYVNFKTFVDRMHANLPRDPYVDPMAPLPRSGPEISIEMILQAAQPKIQPFPFQEHTDLPVGPTGGMGGQAEGPTCG", "soluble on expression in E. coli": "soluble"},
      {"sequence": "MGHHHHHHSHDDDDLNTIEFKILAYYTRHHVFKSTPALFSPKLLRTRSLSQRGLGNCSANESWTEVSWPCRNSQSSEKAINLGKKKSSWKAFFGVVEKEDSQSTPAKVSAQGQRTLEYQDSHSQQWSRCLSNVEQCLEHEAVDPKVISIANRVAEIVYSWPPPQATQAGGFKSKEIFVTEGLSFQLQGHVPVASSSKKDEEEQILAKIVELLKYSGDQLERKLKKDKALMGHFQDGLSYSVFKTITDQVLMGVDPRGESEVKAQGFKAALVIDVTAKLTAIDNHPMNRVLGFGTKYLKENFSPWIQQHGGWEKILGISHEEVD", "soluble on expression in E. coli": "not soluble"},
      {"sequence": "MSGGLLKALRSDSYVELSQYRDQHFRGDNEEQEKLLKKSCTLYVGNLSFYTTEEQIYELFSKSGDIKKIIMGLDKMKKTACGFCFVEYYSRADAENAMRYINGTRLDDRIIRTDWDAGFKEGRQYGRGRSGGQVRDEYRQDYDAGRGGYGKLAQNQ", "soluble on expression in E. coli": "soluble"},
      {"sequence": "MRASEVLQKCLPNSLSGMHALRERALLHAVEALLHGRRLTLMDIARSWPSALRVRAPLKAVDRLLSNRNLQVERSVIDHEMAHWLLRGAQPVIVIDWSDLKPDKSWCLLRAAVPVGGRTLTLLDMVVPGKQQGLEHHHHHH", "soluble on expression in E. coli": "soluble"},
      {"sequence": "MAHHHHHHMSGPPKQCYYELLQVDRKASSEEIRQAYKKQALIHHPDKNYSNEQSTIEKFKDIQNAYAVLSDPDERAWYDAHRESILNGEDADSSQHEVNLYCYFTSRCFDGFDDNEGGFYSVYRKVFDQLIEDESEYSSNAKTWPRFGDSATSWSSVSKFYSHWRNFSSCKTFAWKDEYKVNEIPDRASRRMAERINQKLRTSAKKEYVQIVQGLTRFVHRRDPRVAAELTRQEEERRLKEEEREKRELEWAKNRREANEKLWAEAAEKEAEEERARIERGEAPDSCTLDLLYEKQRQCEEARKVKGGTNCGFAMLEDEHEDNLPEKKRSCPACKKQFKTDAQYKEHVNSSKHKAKLRQLSAKGVDIETLMNEEKDISTCV", "soluble on expression in E. coli": "soluble"},
      {"sequence": "MSLLIRELETNDLDNFPEIDDSFIVNARLMLSLSKVNRRIEYTVEDVPSYEKSYLQNDNEELVYNEYINKPNQIIYIALLHNQIIGFIVLKKNWNNYAYIEDITVDKKYRTLGVGKRLIAQAKQWAKEGNMPGIMLETQNNNVAACKFYEKCGFVIGGFDFLVYKGLNMTSDEVAIYWYLHFDS", "soluble on expression in E. coli": "not soluble"},
      {"sequence": "MPPGKNFRRRKEDSSDEEDDETKFVVRSKLDEAKELQSLRKRQHGVSIATLLVGEKLPLEAELEDDPFKLKTGGVVDMKKVKDRSRDMTVDENDLNLGTSFSAETNRRDEDADMMKYIETELKKKKGMVEAEEQKVKVKNPEDLLYELPENINVSSAKKTEEMLSNQMLSGIPEVDLGIDAKIKNIINTEEAKAKLLAEQRNKKKDSGTSFVPTNIAVNYVQHNRFYHEDSNAPQRRNREEPKARPLRVGDTEKPAPEASPPNFRKRPNNEKATDDYHYEKFKKMNRRY", "soluble on expression in E. coli": "soluble"},
      {"sequence": "MGSDKIHHHHHHMNYKTLVMKILIINQHSMNHGDEAAGKALIRTLYDRGFQDIAVSYNMNDFDASCLFKYKNVKQILPTKKKARGLDKITKLYLKCPCFITRFLTLMYLQRRREVKMIKEANIVISAPGGVNMGLYRDYGYVWRLKEVLYQGKSLVIYSPSIGPFTTNDFFRKIAKEILTRSTFVSLRDTQSYRYAEDLSVHYIQSIDTAYLETPRMDLPLELLNLLPKEYVVLVPNELYSWHIDYFHYDKRSIDRFYSSLIDKFTSNGLTVVLLPQLFYQPNMEDEDYFNRLKAENEKVIVIPTYYDSDIQQAIIKRAQFVVGARYHTIVFSINNETPFVCLSYEHKMKNMLEILSLDSYSIDISYAFENHKIVIDKIWKMYLDRVSVLNVLYDGKKKAKLLARKTFDFLIKKLRSM", "soluble on expression in E. coli": "not soluble"},
      {"sequence": "MGSDKIHHHHHHMRVEDILDQLVMQSRDQDGAKYYISLINDMRIDRSVDPVKSIILEILSLCSDGRIDPWDVDLLKFAEIMNSFFGNSFIDFQFAGKAIADAWRVLRIKSDMSPKEQDRQMNDIGCEEPEDTDNFIPQNQVVIQLVPSVLTPQSRPVVLVDLIDEIRRKMYSSRLQKKKVDVHIEFDSSKLNPDRSEEMIEKTYRAIIESGKQKVFMSEIWGNTRRERAVFFLYSMFLFRDGRISLSQEEPNGDILIETNVI", "soluble on expression in E. coli": "not soluble"},
      {"sequence": "MAIVPFKRDPTFYPSPKMAMKAPPEDLAYVACLYTGTGINRADFIAVVDVNPKSETYSKIVHKVELPYINDELHHFGWNACSSALCPNGKPNIERRFLIVPGLRSSRIYIIDTKPNPREPKIIKVIEPEEVKKVSGYSRLHTVHCGPDAIYISALGNEEGEGPGGILMLDHYSFEPLGKWEIDRGDQYLAYDFWWNLPNEVLVSSEWAVPNTIEDGLKLEHLKDRYGNRIHFWDLRKRKRIHSLTLGEENRMALELRPLHDPTKLMGFINMVVSLKDLSSSIWLWFYEDGKWNAEKVIEIPAEPLEGNLPEILKPFKAVPPLVTDIDISLDDKFLYLSLWGIGEVRQYDISNPFKPVLTGKVKLGGIFHRADHPAGHKLTGAPQMLEISRDGRRVYVTNSLYSTWDNQFYPEGLKGWMVKLNANPSGGLEIDKEFFVDFGEARSHQVRLSGGDASSDSYCYP", "soluble on expression in E. coli": "soluble"},
      {"sequence": "MGSDKIHHHHHHVIEVIRQRVLPHYGLEGNAAKVSPLGNGHINDTFLVTWDEGSMVLQRLNTSVFQAPWTLVENAELISRHLGEKEGKDYELKVVSPKTTAEGDLGIDLGEAGFWRAIRYLKHSNSIDVVGSEAQAEQAARAFGHFARALCDFDATRIGDVIPKFHFLPGRLAALEQAAADNKAGRLDTCREWVDFALCQRGLLDELAALEPKLPLRVCHNDTKINNMLFDKRDDSAMAIIDLDTCMKGHLMYDFGDMVRTFTSPEAEDSTALDKVRVRPEIFAAICRGYLAELGDVLEAAERESLWLGARIMCLMIGVRFLTDYLNGDLYFHVHREGHNLDRAANQFTLYQSLLTQADRLKPCIF", "soluble on expression in E. coli": "not soluble"},
      {"sequence": "MISRVGADLGLSATAHVPRTDEPQKAKDFTTDQEVRWCPGCGDYVILATIRSFLPELGLRRENLMFVSGIGCSSRFPYYLDTYGLHSIHGRAPAIATGLAVTRPDLSVWVVTGDGDALSIGGNHLIHALRRNVNMTILLFNNRIYGLTKGQYSPTSEVGKVTKSTPLGSVDHPFNTLSLALGAEATFAARAMDSDRKGLTEVLRQAAAHRGTSFVEIYQDCPIFNDGSFDVLRKDGSEQRLIPLTHGEPIVFGGAGEYCVVRSGFGLKVVATADVDRDDIVVHDAHTDDPDYAYALSRLSDQDLTHTVTGVFRSVTRDTYDDMVRLQNEIAQEKDPVDDGSLQRLLTGHDTWTVE", "soluble on expression in E. coli": "not soluble"},
      {"sequence": "MKIAVVTESSANLKAQAVKDYQITVVNDPIMFGNHVYHENVDITTDQFYRLLKVEKEIPTISQISMPEMQVVFDQLQAAGYDQILVIGLSSGISGWINNLKTYAPSVDGIDVRVFDSRTACAGTANMVKLAAAMALADYTLDEIIAQLTRLRAATTTVLIVNSMRHLVKNGRIYNNSSLAGTMVLRNKPIITFNGHGKIQLLGKERTLKNAQQAVQDEFSQFVMNSQLPVRLDVISANDARIAEDWASELRYQFPAVRVKTGVIGPVLGVLTGDHALGMIWSLDWKPLLTTLNQEQKQ", "soluble on expression in E. coli": "not soluble"},
      {"sequence": "MPGGRRRGFDDQVALQTAMELFWRQGYEGTSITDLTKALGINPPSLYAAFGSKRDLFEKTLDRYMCERTLQLEEAMVRPTAHEAVLDFLTGRVEVFTAPGQPFGCMTVQAGLASGEPHHEIVDLLTAAREQMRQTVLDRFEKALADGDLPAGTDCTALARYVMAAVYGLSVEAASGAPREELTAAAILAAQVVPRAQM", "soluble on expression in E. coli": "soluble"},
      {"sequence": "GSHMSVRIVDVREITKPISSPIRNAYIDFTKMTTSLVAVVTDVVREGKRVVGYGFNSNGRYGQGGLIRERFASRILEADPKKLLNEAGDNLDPDKVWAAMMINEKPGGHGERSVAVGTIDMAVWDAVAKIAGKPLFRLLAERHGVKANPRVFVYAAGGYYYPGKGLSMLRGEMRGYLDRGYNVVKMKIGGAPIEEDRMRIEAVLEEIGKDAQLAVDANGRFNLETGIAYAKMLRDYPLFWYEEVGDPLDYALQAALAEFYPGPMATGENLFSHQDARNLLRYGGMRPDRDWLQFDCALSYGLCEYQRTLEVLKTHGWSPSRCIPHGGHQMSLNIAAGLGLGGNESYPDLFQPYGGFPDGVRVENGHITMPDLPGIGFEGKSDLYKEMKALAE", "soluble on expression in E. coli": "soluble"},
      {"sequence": "MGSDKIHHHHHHNEDNLKIKTIKGDSNELDHININFGYALNGYINSYYTINGSNKTKKTELIKLQKDSKNTNNLIDVSSGSDLIAHVGFEMNEESKDINFVIDEKKEDLEKGVFPSEGSDKEIEYEKLDMNNFTRTRYKVDKSTDDYYAKILASKRYKKYLYVSVLYATSDSSENNKEYSSTIDIIKINPENKKIKTIKSINLSNYFSEKYQNIENIGVSYASKYEDKMYILVNVLNTNIGDNSNSKFHLLEYNLEENKESIMELKTDSKMALAKAKLEANKLYMVMSNDYDNSSITELNLLTYNILDKSLDEDKYVLDNREKRGIRSIEIDSNKIVAYTSRLNSILSWDDKFMLYIINKNSKEIVYEGELQFNSSNSMLEFEIK", "soluble on expression in E. coli": "not soluble"},
      {"sequence": "YLYVYKGVYATDEDVPVNPLTGERLRMGGNTSTQAYFKAGDPIWVDVNGDYIIDEKDKVIVGNSQPRMTGGISINLRYKAFSINTNCSFTLRRDIINKALADRFRAYGTPVAGKVNLTGSGALTPIEAYNFWTEDNIYAQYPNPFDYTRSSIIQPFRYDQTLFMEDGSYFKINGISVAYTIPKKMLDFFRISRCQLNFSMNNIYTFSKYSGINPENVNNLGYDTSGGYPNGRTVTFGVSMDF", "soluble on expression in E. coli": "not soluble"},
      {"sequence": "MLDNVLRIATRQSPLALWQAHYVKDKLMASHPGLVVELVPMVTRGDVILDTPLAKVGGKGLFVKELEVALLENRADIAVHSMKDVPVEFPQGLGLVTICEREDPRDAFVSNNYDSLDALPAGSIVGTSSLRRQCQLAERRPDLIIRSLRGNVGTRLSKLDNGEYDAIILAVAGLKRLGLESRIRAALPPEISLPAVGQGAVGIECRLDDSRTRELLAALNHHETALRVTAERAMNTRLEGGCQVPIGSYAELIDGEIWLRALVGAPDGSQIIRGERRGAPQDAEQMGISLAEELLNNGAREILAEVYNGDAPA", "soluble on expression in E. coli": "soluble"}
    ]}
  ]
}
